Experimental findings from publication PMC6250423, “Molecular mechanisms that stabilize short term synaptic plasticity during presynaptic homeostatic plasticity” (eLife, 2018) are described below.

The target in assay [1] is T1, MBP-Rop (recombinant wild-type Rop, Drosophila Unc-18) (Drosophila melanogaster, UniProt Q07327 1-597).
T1 construct: Rop (Ras opposite, Unc-18 orthologue), Drosophila melanogaster; cDNA SD04216 amplified with primers from the start ATG to the stop codon and cloned into pMAL-c5E; Expressed from pMAL-c5E (NEB N8110); printed size of the fusion 110 kDa; also called MBP-Rop^WT; Ras opposite; source: Rosetta cells (Novagen), purified (amylose resin, eluted with maltose)
T1 sequence (Q07327 whole entry, the tested form may be a part): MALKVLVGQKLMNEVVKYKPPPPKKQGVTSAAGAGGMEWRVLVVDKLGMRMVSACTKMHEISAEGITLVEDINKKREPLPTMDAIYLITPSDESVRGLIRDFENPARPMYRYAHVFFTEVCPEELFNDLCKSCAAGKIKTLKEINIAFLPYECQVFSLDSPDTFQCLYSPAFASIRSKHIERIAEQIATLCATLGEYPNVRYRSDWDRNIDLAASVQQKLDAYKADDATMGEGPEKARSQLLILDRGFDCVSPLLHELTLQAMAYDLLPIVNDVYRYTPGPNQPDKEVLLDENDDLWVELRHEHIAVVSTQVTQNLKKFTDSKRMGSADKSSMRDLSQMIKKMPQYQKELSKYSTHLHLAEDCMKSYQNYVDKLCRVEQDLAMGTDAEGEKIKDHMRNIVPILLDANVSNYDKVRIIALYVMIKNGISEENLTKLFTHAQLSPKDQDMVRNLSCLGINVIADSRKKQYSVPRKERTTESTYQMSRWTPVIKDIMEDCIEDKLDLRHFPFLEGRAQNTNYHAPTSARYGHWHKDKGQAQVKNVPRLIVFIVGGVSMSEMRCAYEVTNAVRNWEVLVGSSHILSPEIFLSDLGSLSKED
Kind of assay: pull-down; GST-syx1A^ΔC (2 ug) bound to GST bind resin, 1 hr at 4°C with MBP-Rop or MBP-Rop^G11 at 0-6 uM in NP40 buffer (1% NP-40, 150 mM NaCl, 2 mM EDTA, phosphate); SDS-PAGE, Coomassie, fraction bound quantified in ImageJ, Kd from a dose response curve fit (Prism 6); n = 2. Conditions: both partners purified.

The target in the next assay is T2, MBP-Rop^G11 (D45N) (Drosophila melanogaster, UniProt Q07327 1-597, D45N).
T2 construct: Rop (Ras opposite, Unc-18 orthologue), Drosophila melanogaster; PMAL-Rop with the point mutation of the Rop^G11 allele (Asp45 to Asn; nucleotide G133A) made by site-directed mutagenesis; Same construct as m1 with D45N; the mutation is that of the Rop^G11 allele of Harrison et al., 1994; also called recombinant Rop^G11 mutant protein; source: Rosetta cells (Novagen), purified (amylose resin, …)
T2 sequence (Q07327 whole entry D45N): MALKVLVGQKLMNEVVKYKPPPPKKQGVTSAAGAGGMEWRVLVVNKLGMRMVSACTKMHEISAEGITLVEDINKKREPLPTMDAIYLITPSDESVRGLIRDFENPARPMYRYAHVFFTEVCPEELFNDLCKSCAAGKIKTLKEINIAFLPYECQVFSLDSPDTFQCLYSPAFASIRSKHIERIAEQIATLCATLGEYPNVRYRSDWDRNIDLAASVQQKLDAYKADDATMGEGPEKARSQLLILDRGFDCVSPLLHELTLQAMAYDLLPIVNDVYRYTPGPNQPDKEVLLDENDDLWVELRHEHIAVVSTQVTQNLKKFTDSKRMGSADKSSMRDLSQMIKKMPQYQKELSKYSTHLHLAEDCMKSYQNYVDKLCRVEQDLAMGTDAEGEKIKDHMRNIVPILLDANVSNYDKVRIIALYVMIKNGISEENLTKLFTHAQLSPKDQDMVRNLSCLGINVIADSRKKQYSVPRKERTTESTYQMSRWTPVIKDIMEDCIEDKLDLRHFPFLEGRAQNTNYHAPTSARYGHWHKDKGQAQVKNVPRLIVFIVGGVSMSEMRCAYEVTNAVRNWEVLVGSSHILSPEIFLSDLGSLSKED
The description is as above. To be noted: both partners purified.

B1: GST-syx1A^ΔC (Syntaxin1A, amino acids 1-268) (domain or fragment, Drosophila melanogaster, UniProt Q24547 1-268, looked up)
chain: MTKDRLAALHAAQSDDEEETEVAVNVDGHDSYMDDFFAQVEEIRGMIDKVQDNVEEVKKKHSAILSAPQTDEKTKQELEDLMADIKKNANRVRGKLKGIEQNIEQEEQQNKSSADLRIRKTQHSTLSRKFVEVMTEYNRTQTDYRERCKGRIQRQLEITGRPTNDDELEKMLEEGNSSVFTQGIIMETQQAKQTLADIEARHQDIMKLETSIKELHDMFMDMAMLVESQGEMIDRIEYHVEHAMDYVQTATQDTKKALKYQSKARRKK
notes: Syntaxin 1A, Drosophila melanogaster, amino acids 1-268; Expressed from pGEX-4T1; printed size of the fusion 60 kDa; The nucleotide change A802T would turn codon 268 into a stop, so the chain may end at residue 267 rather than 268; also called recombinant Syntaxin1A
The Kd is the constant that tells how readily two partners part at equilibrium. Regarding B1, the Kd amounted to 0.4 µM in assay [1] and 36.1 µM with MBP-Rop^G11 (D45N).
